Experimental data as given in US20220193132A1 (NATIONAL RESEARCH COUNCIL OF CANADA, published 2022).

Tests used:
[1] = target: T1, EGFRvIII, full length, overexpressed on glioblastoma cells (human, UniProt P00533 298-623); assay: flow cytometry dose-response on U87MG-EGFRvIII cells, apparent Kd
T1 construct: Cells overexpress full length EGFRvIII (deletion of exons 2-7 of EGFR); Cell line (U87MG or DKMG) is named under assay; also called U87MG-EGFRvIII; U87vIII

[2] = target: T2, wild type human EGFR, full length, overexpressed on U87MG cells (human, UniProt P00533 25-1210); assay: flow cytometry dose-response, U87MG-EGFRwt cells
T2 construct: also called U87MG-EGFR wt; U87 WT
Protocol: Prior to analysis, cells were plated such that they were not more than 80% confluent on the day of analysis. Unless otherwise stated, all media are kept are 4° C. and all incubations are performed on wet ice. Cells were washed in PBS, harvested by the addition of cell dissociation buffer (Sigma), centrifuged and resuspended in complete medium at a cell density of 2×10⁶ cells/mL. Fifty μL/well of cells were distributed in a polypropylene v-bottom 96 well plate and serial 1/3 dilutions of purified mAbs starting at 100 nM were added and incubated for 2 hours. […] Cells were washed and re-suspended in medium containing Propidium iodide to exclude dead cells from analysis. Samples were filtered through a 60 μm nylon mesh filter plate (Millipore, Ireland) to remove cell aggregates. Flow cytometry analyses were performed on 2,000 viable single-cells events gated on forward scattering, side scattering parameters and propidium iodide dye exclusion using a BD-LSRFortessa flow cytometer (Becton-Dickinson Biosciences, CA, USA) and a standard filter set using BD FACSDiva™ acquisition software, according to manufacturer's instructions.
Specific detection of antibody binding was calculated as the mean fluorescent intensity of binding to each primary antibody after background level subtraction of the mean fluorescent intensity of binding of mouse IgG control. The data were analyzed with GraphPad Prism v 6.0 software using one-site specific binding with Hill slope non-linear regression curve fit model to determine Bmax (maximum specific binding) and Kdₐₚₚ (concentration needed to achieve a half-maximum binding at equilibrium) for each mAb tested.

[3] = target: T3, recombinant human EGFRvIII protein (extracellular domain), denatured (human, UniProt P00533 298-623); assay: ELISA Exp 2, purified mAb 1 ug/ml;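 note: ELISA of purified mAb binding to plate-coated antigen, native or heat/DTT-denatured, with pNPP substrate developed for 30 min and incubations at room temperature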
T3 construct: Same protein as m21 after 95 C for 5 min in PBS with 40 mM DTT (denatured, reduced); also called EGFRvIII Denatured
Protocol: (§1) Pre- and post-immune sera titers of animals were assessed by ELISA on recombinant EGFRvIII protein. Unless otherwise stated, all incubations were performed at room temperature. […] Microplates were washed three times in PBS and blocked for 30 min with PBS containing 1% bovine serum albumin (BSA, Sigma Cat #A7030). Blocking buffer was removed and 25 μl of serial dilutions of sera samples were added. […] After a 1-h incubation, microplates were washed 4 times and 25 μl of p-nitrophenyl phosphate (pNPP) substrate (Sigma-Aldrich Canada Co., Oakville, ON) at 1 mg/ml in carbonate buffer at pH 9.6 was added and further incubated for 30 min.
(§2) Antigens at 1-2 mg/ml were incubated at 95° C. for 5 min in PBS containing DTT at a final concentration of 40 mM. They were then incubated on ice for 5 min and diluted at their final coating concentration for ELISA purpose.
(§3) ELISA was performed as described above (serum titer determination) using 25 μl of mAb supernatant (Exp 1) or purified mAb at 1 μg/ml (Exp 2).

[4] = target: T4, recombinant human wild type EGFR protein (extracellular domain), denatured (human, UniProt P00533 25-645); assay: ELISA Exp 2, purified mAb 1 ug/ml;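 note: ELISA of purified mAb binding to plate-coated antigen, native or heat/DTT-denatured, with pNPP substrate developed for 30 min and incubations at room temperature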
T4 construct: Same protein as m23 after 95 C for 5 min in PBS with 40 mM DTT (denatured, reduced); also called wt EGFR Denatured
Protocol: as §1, §2, §3

[5] = target: T5, recombinant human EGFRvIII protein (extracellular domain), native (human, UniProt P00533 298-623); assay: ELISA Exp 2, purified mAb 1 ug/ml;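 note: ELISA of purified mAb binding to plate-coated antigen, native or heat/DTT-denatured, with pNPP substrate developed for 30 min and incubations at room temperature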
T5 construct: also called hEGFRvIII
Protocol: as §1, §2, §3

[6] = target: T6, recombinant human wild type EGFR protein (extracellular domain), native (human, UniProt P00533 25-645); assay: ELISA Exp 2, purified mAb 1 ug/ml;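 note: ELISA of purified mAb binding to plate-coated antigen, native or heat/DTT-denatured, with pNPP substrate developed for 30 min and incubations at room temperature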
T6 construct: also called wt EGFR; EGFR WT
Protocol: as §1, §2, §3

[7] = target: T4, recombinant human wild type EGFR …; assay: ELISA on recombinant antigen
Protocol: as §1, §2, §3

[8] = target: T6, recombinant human wild type EGFR …; assay: ELISA on recombinant antigen
Protocol: as §1, §2, §3

[9] = target: T3, recombinant human EGFRvIII protein …; assay: ELISA Exp 1, mAb supernatant
Protocol: as §1, §2, §3

[10] = target: T4, recombinant human wild type EGFR …; assay: ELISA Exp 1, mAb supernatant
Protocol: as §1, §2, §3

[11] = target: T5, recombinant human EGFRvIII protein …; assay: ELISA Exp 1, mAb supernatant
Protocol: as §1, §2, §3

[12] = target: T6, recombinant human wild type EGFR …; assay: ELISA Exp 1, mAb supernatant
Protocol: as §1, §2, §3

B1: 13.1.2 mIgG1 (antibody, V domains shown)
VH: QVQLVESGGGVVQPGRSLRLSCAASGFTFSSYGMHWVRQAPGKGLEWVAVIWYDGSNKYYVDSVKGRFTISRDNSKNTLYLQMNSLRAEDTAVYYCARDGWQQLAPFDYWGQGTLVTVSS
VL: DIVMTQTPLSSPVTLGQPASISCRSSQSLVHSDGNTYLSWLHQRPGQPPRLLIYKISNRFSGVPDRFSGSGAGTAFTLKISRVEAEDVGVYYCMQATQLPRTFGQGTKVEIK
[1]
  Kd: 4.3 nM
[2]
  binding result: no binding (tested: 100 nM highest concentration)
[3]
  ELISA absorbance 405 nm: 1.71 A405
[4]
  ELISA absorbance 405 nm: 0.005 A405
[5]
  ELISA absorbance 405 nm: 1.67 A405
[6]
  ELISA absorbance 405 nm: 0.003 A405
[7]
  binding result: no binding
[8]
  binding result: no binding
[9]
  ELISA absorbance 405 nm: 1.91 A405
[10]
  ELISA absorbance 405 nm: 0.003 A405
[11]
  ELISA absorbance 405 nm: 1.1 A405
[12]
  ELISA absorbance 405 nm: 0.011 A405
